Assay results taken from publication PMC4379030.

Assays:
[1] = target: CaM-free full-length murine inducible nitric-oxide synthase, expressed and purified in the absence of CaM (murine) (UniProt P29477); assay: ITC; single injection mode; 20 μM iNOSfl (-CaM) (dissolved in 200 μl) against 8 μM CaM (dissolved in 2 ml); 40 mM EPPS, 10% glycerol, 150 mM NaCl, 2 mM Ca2+; single-site binding model
[2] = target: CaM-free full-length murine inducible nitric-oxide synthase, expressed and purified in the absence of CaM (murine) (UniProt P29477)

Sequence of UniProt P29477 (P29477 whole entry): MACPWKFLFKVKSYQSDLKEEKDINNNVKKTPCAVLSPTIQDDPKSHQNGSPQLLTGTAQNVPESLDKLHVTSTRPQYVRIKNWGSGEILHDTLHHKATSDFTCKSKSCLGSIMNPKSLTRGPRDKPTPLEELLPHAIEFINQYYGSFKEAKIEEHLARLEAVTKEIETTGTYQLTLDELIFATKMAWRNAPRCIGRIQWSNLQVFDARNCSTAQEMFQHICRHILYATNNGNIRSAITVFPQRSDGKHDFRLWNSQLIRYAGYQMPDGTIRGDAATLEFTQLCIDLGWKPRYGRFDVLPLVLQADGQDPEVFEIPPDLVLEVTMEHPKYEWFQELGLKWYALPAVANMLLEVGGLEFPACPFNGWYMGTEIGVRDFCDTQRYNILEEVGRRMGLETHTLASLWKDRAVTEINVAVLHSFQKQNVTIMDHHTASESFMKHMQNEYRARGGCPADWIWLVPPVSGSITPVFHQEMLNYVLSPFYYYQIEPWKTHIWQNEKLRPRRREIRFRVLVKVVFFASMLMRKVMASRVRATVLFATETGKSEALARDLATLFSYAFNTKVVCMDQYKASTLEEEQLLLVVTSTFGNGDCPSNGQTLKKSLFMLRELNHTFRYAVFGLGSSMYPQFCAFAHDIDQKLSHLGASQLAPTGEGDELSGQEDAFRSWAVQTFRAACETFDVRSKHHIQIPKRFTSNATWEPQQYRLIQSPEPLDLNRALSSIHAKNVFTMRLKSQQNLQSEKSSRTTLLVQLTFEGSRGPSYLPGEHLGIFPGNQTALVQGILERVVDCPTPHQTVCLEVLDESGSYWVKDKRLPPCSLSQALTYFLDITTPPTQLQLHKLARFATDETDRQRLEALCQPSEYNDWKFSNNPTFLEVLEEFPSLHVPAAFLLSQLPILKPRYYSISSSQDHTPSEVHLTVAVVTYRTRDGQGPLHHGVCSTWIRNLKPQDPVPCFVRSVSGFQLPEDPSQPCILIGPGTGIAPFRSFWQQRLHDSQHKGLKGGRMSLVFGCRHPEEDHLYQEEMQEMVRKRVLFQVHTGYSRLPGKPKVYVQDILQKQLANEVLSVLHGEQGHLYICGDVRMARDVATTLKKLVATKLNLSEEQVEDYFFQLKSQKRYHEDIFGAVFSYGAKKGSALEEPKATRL

dH [1]: 2040 kJ/mol
steady-state NO synthesis activity (oxyhemoglobin assay, 1 μM CaM in the assay buffer, 25°C) (min^-1 per μg of protein) [2]: 10.8
Substance: calmodulin (added in vitro) (from UniProt P0DP23 1-149) (natural protein)
